# B1: Campylobacter jejuni β-hydroxyacyl-ACP dehydratase (FabZ) (enzyme, Campylobacter jejuni strain 81-176, UniProt Q9PIM2 1-146, looked up)
# chain: MIDVMQIQEILPHRYPFLLVDKITELKVKEVVLGYKNISISDHVFMGHFPGHPIYPGVLILEGMAQTGGVLAFESMEDKVDPKSKVVYFTGIDGAKFRNPVRPGDRLDYEMSVVKNRGNMWIFKGQAFVDGNLVAEAELKAMIVDK
# Target: the molecule itself
# Assay: SEC
protein,measurement,value
B1,stoichiometry N,6
